These results are taken from patent US20220064286A1 (Genentech, published 2022).

The target of assay [1] is T1, cynomolgus monkey (cyno) TIGIT protein (cynomolgus monkey, UniProt A0A7N9I9V4 89-209). The assay can be described thus: SPR, captured mAb.
The target of assay [2] is T2, human TIGIT protein (human, UniProt Q495A1 22-141, limits assumed).
T2 construct: Recombinant protein (Genentech) used in ELISA screening and as SPR analyte; also called TIGIT antigen
T2 sequence: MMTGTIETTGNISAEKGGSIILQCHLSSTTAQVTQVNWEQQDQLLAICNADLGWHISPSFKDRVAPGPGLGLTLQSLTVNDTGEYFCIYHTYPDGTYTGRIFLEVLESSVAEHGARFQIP
The assay can be described thus: SPR, captured mAb. For orientation: In SPR one partner is held on a chip, and binding of the other changes the refractive index at the surface.

Assay [3] has as its target T3, full-length human TIGIT on CHO cells (human, UniProt Q495A1 22-244).
T3 construct: also called CHO-hTIGIT; hu TIGIT
T3 sequence: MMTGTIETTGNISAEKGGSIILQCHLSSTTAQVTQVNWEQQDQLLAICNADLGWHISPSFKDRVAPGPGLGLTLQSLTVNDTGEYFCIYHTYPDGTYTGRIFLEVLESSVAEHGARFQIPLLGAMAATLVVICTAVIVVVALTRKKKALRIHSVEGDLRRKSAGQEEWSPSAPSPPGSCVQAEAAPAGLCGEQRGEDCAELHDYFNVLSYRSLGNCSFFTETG
Briefly: FACS, CHO cells expressing TIGIT.

The target of assay [4] is T3, full-length human TIGIT on CHO cells. Briefly: FACS, PVR-Fc on CHO-TIGIT cells; competitor PVR-Fc. Here is the method: (§1) These studies were further validated in CHO-TIGIT PVR blocking experiments in which TIGIT-expressing CHO cells were incubated with labeled PVR-Fc fusion protein in the presence of anti-TIGIT antibody or an human IgG1 control (FIG. 4A).
(In general: A flow cytometer gives signals particle by particle.)

Assay [5] addresses T1, cynomolgus monkey (cyno) TIGIT protein. The assay can be described thus: SPR, bivalent affinity.
Assay [6] deals with T2, human TIGIT protein. Briefly: SPR, bivalent affinity.
Assay [7] addresses T1, cynomolgus monkey (cyno) TIGIT protein. The assay can be described thus: SPR, monovalent affinity.
Assay [8] deals with T2, human TIGIT protein. Briefly: SPR, monovalent affinity.
Assay [9] has as its target T4, human TIGIT on activated human primary T cells (human, UniProt Q495A1 22-244).
T4 construct: also called Human T cell
T4 sequence: T3 sequence
Briefly: FACS, activated human T cells. As to the method:
The OMT- and SD-derived anti-TIGIT clones were also tested for binding to human primary T cells by FACS analysis. Human PBMC were activated for with plate-bound anti-CD3 (5 μg/ml) and soluble anti-CD28 (2 μg/ml) for 2 days as described in Yu et al. Nature Immunology. 10: 48-57, 2009, which is incorporated herein by reference in its entirety. Cells were then washed and incubated with incubated with each anti-TIGIT antibody at the indicated concentrations and then detected via a FITC-labeled anti-hIgG antibody. Cells were also stained with anti-CD4, anti-CD8, and anti-CD25 (BD bioscience). Human CD4+(CD25+CD4+) and human CD8+(CD25+CD8+) T cells were assessed for binding by the anti-TIGIT clones by FACS. All samples were acquired on LSR-II or LSR-Fortessa instruments (BD Biosciences) and analyzed using FlowJo software (Treestar).

Assay [10] has as its target T5, cynomolgus TIGIT on CHO cells (cynomolgus monkey, UniProt A0A7N9I9V4 89-312).
T5 construct: whole, on cells; also called CHO-cyTIGIT; cyTIGIT
Briefly: FACS blocking assay: labelled PVR-Fc (blocked ligand) on CHO cells expressing cyno TIGIT. As to the method: as §1

Assay [11] has as its target T5, cynomolgus TIGIT on CHO cells. Briefly: FACS on CHO cells expressing cyno TIGIT, FITC anti-hIgG detection. Here is the method:
Additional in vitro binding studies of the OMT- and SD-derived anti-TIGIT antibody clones were conducted. The OMT- and SD-derived anti-TIGIT clones were tested for binding to human and cyno TIGIT expressed on the surface of CHO cells by FACS analysis. CHO cells were transfected with full-length human TIGIT (CHO-hTIGIT) or cynomologous TIGIT (CHO-cyTIGIT). The TIGIT-expressing CHO cells were incubated with each anti-TIGIT antibody at the indicated concentrations and then detected via a FITC-labeled anti-hIgG antibody (see FIG. 1A) using standard methods. The results, shown in Table 6 and FIGS. 1B-1E, corroborate the results from the BIACORE™ analysis, described above.

What is called koff is a measure of how fast the partners let go of each other. The term kon denotes a measure of how fast the partners come together. The EC50 is the concentration giving half of the maximal effect. Usually IC50 stands for the concentration needed to halve the response being measured. The term EC50 (read off the curve) denotes the concentration at which the effect is half-maximal.

T1 sequence (A0A7N9I9V4 entry or part of it): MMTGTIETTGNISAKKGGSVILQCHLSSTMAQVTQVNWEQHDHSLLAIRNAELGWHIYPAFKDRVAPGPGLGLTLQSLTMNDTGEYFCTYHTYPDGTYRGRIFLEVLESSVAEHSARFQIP
T5 sequence (A0A7N9I9V4 entry or part of it): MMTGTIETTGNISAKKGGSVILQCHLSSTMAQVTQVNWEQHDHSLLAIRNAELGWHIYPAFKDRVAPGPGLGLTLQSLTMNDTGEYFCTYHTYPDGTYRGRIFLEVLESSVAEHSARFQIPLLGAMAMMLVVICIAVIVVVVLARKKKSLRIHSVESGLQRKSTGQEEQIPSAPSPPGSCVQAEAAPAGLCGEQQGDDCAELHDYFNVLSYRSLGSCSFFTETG

B1: rat6B2 (antibody, V domains shown)
VH: QVSLKESGPGILQPSHTLSLTCSFSGFSLSTYGMGVSWIRQPSEKGLEWLASIWWNGNTYYNPSLKSRLTVSKDASNDQAFLNVTSVDTTDTATYYCAHTGGAVITWFAYWGQGTLVTVSS
VL: NIVMTQSPKSMSISVGDRVTMNCKASQSVGKNIAWYQQKPGQSPKLLIYYASNRYTGVPDRFTGGGSGTDFTLTINTVQAEDAAFFYCQHIYNSPYPFGTGTKLEIK
notes: SD rat-derived; rat V domains as FR/HVR pieces; also called 1.6B2; Chimeric 1.6B2
Turning to B1, the Kd in assay [1] was 0.29 nM; in the assay with human TIGIT protein [2], 0.04 nM; in assay [5], 0.091 nM; in the assay with human TIGIT protein [6], not above 0.027 nM; in assay [7] it was 0.29 nM; with human TIGIT protein [8], 0.035 nM. The koff worked out at 0.000202 s⁻¹ in assay [1] and 3.5e-05 s⁻¹ with human TIGIT protein [2]. In addition, the values for the kon (in [1]; with human TIGIT protein [2]) were 688000 M⁻¹ s⁻¹ and 997000 M⁻¹ s⁻¹, respectively. Moreover, the EC50 was 0.52 nM in [3] and 0.09 nM in assay [9]. This molecule came in with an IC50 in [4] of 0.08 nM.

B2: rat7E7 (antibody, V domains shown)
VH: EVQLQQSGPELQRPGASVKLSCKATGYTFTEYSIYWVKQRPKQSLEIIGRIDPKNGRTYYVDKFKNRATLTADTSSNTAYMQLSSLTSEDTATYFCTRIYGFYFDFWGQGVMVTASS
VL: NIHLTQSPSLLSASVGDRVTLSCKGSQNVNKYLVWYQQKLGEAPKLLIYNTDNLQSGIPSRFSGSGSGTDYTLTISSLQPEDAATYFCYQYNNGFTFGSGTKLEIK
notes: SD rat-derived; rat V domains as FR/HVR pieces; also called 1.7E7; Chimeric 1.7E7
Take B2: the Kd is 0.07 nM in [1]; 0.03 nM with human TIGIT protein [2]; not above 0.009 nM in assay [5]; not above 0.004 nM with human TIGIT protein [6]; 0.067 nM in [7]; not above 0.018 nM in the assay with human TIGIT protein [8]. For the same molecule, the koff was determined as 2.7e-05 s⁻¹ in [1] and 1.8e-05 s⁻¹ with human TIGIT protein [2]. For the same molecule, the kon in [1] came to 399000 M⁻¹ s⁻¹; with human TIGIT protein [2] it was 568000 M⁻¹ s⁻¹. The results for the EC50 in assay [3] and in assay [9] were 0.1 nM and 0.11 nM, respectively. For the same molecule, the “IC50 (read off the curve)” value in assay [10] is approximately 0.3 nM. Also, the IC50 in assay [4] was determined as 0.04 nM. The “EC50 (read off the curve)” value in [11] was approximately 0.3 nM.
